Starred links: 1 amine or outer side, 2 acyl side, 3 side chain; linkers in the order of their positions; H or OH if unused. Positions of bridges follow the written chain, without caps; N, C: chain ends. Non-standard residues stand in square brackets, D forms with d. Primed or numbered codes have the meaning given here. No end group written: not given here. *: point of attachment. Dab(Nγ-C3H7N)″ = 2,4-diaminobutyric acid with dimethylamidinium (N,N-dimethylformamidinium) on gamma-N, C[N+](C)=CNCC[C@H](N[*:1])C(=O)[*:2]; Dab(Nγ-C3H7N) = Dab bearing Nγ-dimethylamidinium (C3H7N), C[N+](C)=CNCC[C@H](N[*:1])C(=O)[*:2]; (iBu)Tyr = N-isobutyl-L-tyrosine, CC(C)CN([C@@H](Cc1ccc(O[*:3])cc1)C(=O)[*:2])[*:1]; Tyr(Me)″ = O-methyl-tyrosine (source: Y(Me)), COc1ccc(C[C@H](N[*:1])C(=O)[*:2])cc1; Thr(Me) = O-methyl-threonine (source: T(Me)), CO[C@H](C)[C@H](N[*:1])C(=O)[*:2]; Cys(Me) = S-methylcysteine (source: C(Me)), CSC[C@H](N[*:1])C(=O)[*:2]; Pen(Me) = S-methyl-penicillamine, CSC(C)(C)[C@H](N[*:1])C(=O)[*:2]; Tyr(Me) = O-methyltyrosine, COc1ccc(C[C@H](N[*:1])C(=O)[*:2])cc1; Orn(Nδ-C3H7N) = ornithine with dimethylamidinium on delta-N; Phe(4-NO2) = N[C@@H](Cc1ccc([N+](=O)[O-])cc1)C(=O)O; Phe(4-CONH2) = NC(=O)c1ccc(C[C@H](N)C(=O)O)cc1; Phe(4-NH2) = Nc1ccc(C[C@H](N)C(=O)O)cc1; Phe(4-F) = N[C@@H](Cc1ccc(F)cc1)C(=O)O; 2Nal = N[C@@H](Cc1ccc2ccccc2c1)C(=O)O; NMeY = CN[C@@H](Cc1ccc(O)cc1)C(=O)O; dNMeY = CN[C@H](Cc1ccc(O)cc1)C(=O)O; hArg = N=C(N)NCCCC[C@H](N)C(=O)O; Cha = N[C@@H](CC1CCCCC1)C(=O)O; Agb = N=C(N)NCC[C@H](N)C(=O)O; Chg = N[C@H](C(=O)O)C1CCCCC1; Phg = N[C@H](C(=O)O)c1ccccc1; Pth = not defined here; pal = not defined here; Tfa = O=C(C(F)(F)F)*; Isobutyl = CC(C)C*; βAla = NCCC(=O)O; tBu = CC(C)(C)*
Target: human factor Xa (Enzyme Research Laboratories, Inc.) (human, UniProt P00742 41-179; P00742 235-488, limits assumed)
Sequence (P00742 41-179 limits assumed, chain 1 of 2): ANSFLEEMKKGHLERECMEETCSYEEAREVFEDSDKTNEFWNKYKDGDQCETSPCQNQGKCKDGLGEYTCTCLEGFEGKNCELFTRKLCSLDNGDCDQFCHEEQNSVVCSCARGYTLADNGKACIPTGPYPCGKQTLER
Sequence (P00742 235-488 limits assumed, chain 2 of 2): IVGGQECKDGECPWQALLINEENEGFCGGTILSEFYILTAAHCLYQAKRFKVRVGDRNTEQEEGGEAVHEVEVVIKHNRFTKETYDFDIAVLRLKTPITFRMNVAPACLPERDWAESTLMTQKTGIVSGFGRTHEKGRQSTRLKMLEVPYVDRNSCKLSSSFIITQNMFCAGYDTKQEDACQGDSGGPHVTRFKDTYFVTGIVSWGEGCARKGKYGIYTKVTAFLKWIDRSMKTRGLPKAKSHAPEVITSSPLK
Assay: chromogenic FXa inhibition
Method: TBS-P buffer (50 mM Tris-Cl, pH 7.8, 200 mM NaCl, 0.05% (w/v) PEG-8000, 0.02% (w/v) NaN_3) was used for this assay. The IC$50$ was determined by combining in appropriate wells of a Costar half-area microtiter plate 25 μl human factor Xa (Enzyme Research Laboratories, Inc.; South Bend Ind.) in TBS-P; 40 μl 10% (v/v) DMSO in TBS-P (uninhibited control) or various concentrations of a peptide to be tested diluted in 10% (v/v) DMSO in TBS-P; and substrate S-2765 (Nα-benzyloxycarbonyl-D-Arg-Gly-L-Arg-p-nitroanilide; Kabi Pharmacia, Inc.; Franklin Ohio) in TBS-P.
The assays were performed by pre-incubating the peptide inhibitor plus enzyme for 10 min, then the assay was initiated by adding substrate to obtain a final volume of 100 μl. The initial velocity of chromogenic substrate hydrolysis was measured by the change in absorbance at 405 nm using a Bio-tek Instruments kinetic plate reader (Ceres UV900HDi) at 25° C. during the linear portion of the time course (usually 1–5 min after addition of substrate). The concentration of inhibitor that caused a 50% decrease in the rate of substrate hydrolysis was predicted by linear regression after plotting the relative rates of hydrolysis (compared to the uninhibited control) versus the log of the peptide concentration. The enzyme concentration was 0.5 nM and substrate concentration was 140 μM.

Row | Binder | Ki [µM]
1 | Ac-[Phe(4-F)]IRLP-NH2 (SMILES CC[C@H](C)[C@H](NC(=O)[C@H](Cc1ccc(F)cc1)NC(C)=O)C(=O)N[C@@H](CCCNC(=N)N)C(=O)N[C@@H](CC(C)C)C(=O)N1CCC[C@H]1C(N)=O) [Ac-F(pF)-I-R-L-P-NH2] | < 100
2 | Isobutyl-YIRLA-NH2 [(iBu)Y-I-R-L-A-NH2] | < 100
3 | [2Nal]IR[Cys(Me)]P-NH2 (N-terminus assumed; SMILES CC[C@H](C)[C@H](NC(=O)[C@@H](N)Cc1ccc2ccccc2c1)C(=O)N[C@@H](CCCNC(=N)N)C(=O)N[C@@H](CSC)C(=O)N1CCC[C@H]1C(N)=O) [Nal(2)-I-R-C(Me)-P-NH2] | < 100
4 | Tfa-[NMeY]IRLA-NH2 (SMILES CC[C@H](C)[C@H](NC(=O)[C@H](Cc1ccc(O)cc1)N(C)C(=O)C(F)(F)F)C(=O)N[C@@H](CCCNC(=N)N)C(=O)N[C@@H](CC(C)C)C(=O)N[C@@H](C)C(N)=O) [Tfa-(Me)Y-I-R-L-A-NH2] | < 100
5 | [Phe(4-NH2)]IRLA-NH2 (N-terminus assumed; SMILES CC[C@H](C)[C@H](NC(=O)[C@@H](N)Cc1ccc(N)cc1)C(=O)N[C@@H](CCCNC(=N)N)C(=O)N[C@@H](CC(C)C)C(=O)N[C@@H](C)C(N)=O) [F(pNH2)-I-R-L-A-NH2] | < 100
6 | [Phe(4-NO2)]IRLA-NH2 (N-terminus assumed; SMILES CC[C@H](C)[C@H](NC(=O)[C@@H](N)Cc1ccc([N+](=O)[O-])cc1)C(=O)N[C@@H](CCCNC(=N)N)C(=O)N[C@@H](CC(C)C)C(=O)N[C@@H](C)C(N)=O) [F(pNO2)-I-R-L-A-NH2] | < 100
7 | Ac-[NMeY]IRLA-NH2 (SMILES CC[C@H](C)[C@H](NC(=O)[C@H](Cc1ccc(O)cc1)N(C)C(C)=O)C(=O)N[C@@H](CCCNC(=N)N)C(=O)N[C@@H](CC(C)C)C(=O)N[C@@H](C)C(N)=O) [Ac-(Me)Y-I-R-L-A-NH2] | < 100
8 | [pal]IRC(tBu)P-NH2 (reading uncertain; also: pyridylalanine ring position not given here, printed as pal-I-R-C(SBut)-P-NH2) [pal-I-R-C(SBut)-P-NH2] | < 100
9 | [Tyr(Me)]IRLA-NH2 (N-terminus assumed; SMILES CC[C@H](C)[C@H](NC(=O)[C@@H](N)Cc1ccc(OC)cc1)C(=O)N[C@@H](CCCNC(=N)N)C(=O)N[C@@H](CC(C)C)C(=O)N[C@@H](C)C(N)=O) [Tyr(Me)-I-R-L-A-NH2] | < 100
10 | [pal]C(tBu)RLP-NH2 (reading uncertain; also: pyridylalanine ring position not given here, printed as pal-C(SBut)-R—L—P—NH2) [pal-C(SBut)-R-L-P-NH2] | < 100
11 | Ac-[Tyr(Me)″]IRLA-NH2 (SMILES CC[C@H](C)[C@H](NC(=O)[C@H](Cc1ccc(OC)cc1)NC(C)=O)C(=O)N[C@@H](CCCNC(=N)N)C(=O)N[C@@H](CC(C)C)C(=O)N[C@@H](C)C(N)=O) [Ac-Y(Me)-I-R-L-A-NH2] | < 100
12 | XIRLP (N-term Ac; N-(trans-CH3-CH═C(CH3)-CH2) on Y1; C-term NH2) [Ac-(trans-CH3-CH═C(CH3)-CH2)Y-I-R-L-P-NH2] | < 100
13 | Ac-[βAla]YIRLG-NH2 (SMILES CC[C@H](C)[C@H](NC(=O)[C@H](Cc1ccc(O)cc1)NC(=O)CCNC(C)=O)C(=O)N[C@@H](CCCNC(=N)N)C(=O)N[C@@H](CC(C)C)C(=O)NCC(N)=O) [Ac-βAla-Y-I-R-L-G-NH2] | < 100
14 | Pth-YIRLP-NH2 (reading uncertain; also: printed as Pth-Y-I-R-L-P-NH2) [Pth-Y-I-R-L-P-NH2] | < 100
15 | Ac-[NMeY][Chg]RLP-NH2 [Ac-(Me)Y-Chg-R-L-P-NH2] | < 100
16 | Ac-Y[Thr(Me)]RLP-NH2 [Ac-Y-T(Me)-R-L-P-NH2] | < 100
17 | Ac-Y[Pen(Me)]RLP-NH2 [Ac-Y-Pen(Me)-R-L-P-NH2] | < 100
18 | Ac-Y[Cha]RLP-NH2 [Ac-Y-Cha-R-L-P-NH2] | < 100
19 | Ac-[(iBu)Tyr][Chg]RLP-NH2 [Ac-(iBu)Y-Chg-R-L-P-NH2] | < 100

Row | Binder | Ki [µM]
20 | Ac-Y[Phg]RLP-NH2 [Ac-Y-Pgl-R-L-P-NH2] | < 100
21 | YXRLP (N-term Ac; residue 2 = allo-Ile; C-term NH2) [Ac-Y-(allo-I)-R-L-P-NH2] | < 100
22 | Ac-EYIRLK-NH2 (lactam 1-6; SMILES CC[C@H](C)[C@@H]1NC(=O)[C@H](Cc2ccc(O)cc2)NC(=O)[C@@H](NC(C)=O)CCC(=O)NCCCC[C@@H](C(N)=O)NC(=O)[C@H](CC(C)C)NC(=O)[C@H](CCCNC(=N)N)NC1=O, underlining that marks the cyclized portion is lost in the text) [Ac-E-Y-I-R-L-K-NH2**] | < 100
23 | XIRLP (N-term Ac; N-(Me) on Y1; C-term NH2) [Ac-(Me)Y-I-R-L-P-NH2] | < 100
24 | Ac-EYIRLPK-NH2 (also: cyclisation unknown (underlining lost), may be cyclic; underlining lost) [Ac-E-Y-I-R-L-P-K-NH2] | < 100
25 | Ac-YIRLP-NH2 [Ac-Y-I-R-L-P-NH2] | < 100
26 | Ac-YIRIP [Ac-Y-I-R-I-P] | < 100
27 | Ac-YIRLA (printed without -NH2) [Ac-Y-I-R-L-A] | < 100
28 | Ac-YNRLP-NH2 [Ac-Y-N-R-L-P-NH2] | < 100
29 | [dNMeY]IRLA-NH2 (N-terminus assumed; SMILES CC[C@H](C)[C@H](NC(=O)[C@@H](Cc1ccc(O)cc1)NC)C(=O)N[C@@H](CCCNC(=N)N)C(=O)N[C@@H](CC(C)C)C(=O)N[C@@H](C)C(N)=O) [(Me)y-I-R-L-A-NH2] | < 100
30 | Ac-YIRGP-NH2 (also: pseudo peptide bond ψ(COCH2) between R3 and G4) [Ac-Y-I-R-{ψ(COCH2)}-G-P-NH2] | < 100
31 | Ac-[(iBu)Tyr]I[Dab(Nγ-C3H7N)″]LP-NH2 [Ac-(iBu)Y-I-Dab(N^γ-C3H7N)-L-P-NH2] | < 100
32 | Ac-YI[Agb]LA-NH2 (SMILES CC[C@H](C)[C@H](NC(=O)[C@H](Cc1ccc(O)cc1)NC(C)=O)C(=O)N[C@@H](CCNC(=N)N)C(=O)N[C@@H](CC(C)C)C(=O)N[C@@H](C)C(N)=O) [Ac-Y-I-nR-L-A-NH2] | < 100
33 | Ac-YI[Dab(Nγ-C3H7N)]LA-NH2 (SMILES CC[C@H](C)[C@H](NC(=O)[C@H](Cc1ccc(O)cc1)NC(C)=O)C(=O)N[C@@H](CCNC=[N+](C)C)C(=O)N[C@@H](CC(C)C)C(=O)N[C@@H](C)C(N)=O) [Ac-Y-I-Dab(N^γC3H7N)-L-A-NH2] | < 100
34 | Ac-YI[hArg]LA-NH2 (SMILES CC[C@H](C)[C@H](NC(=O)[C@H](Cc1ccc(O)cc1)NC(C)=O)C(=O)N[C@@H](CCCCNC(=N)N)C(=O)N[C@@H](CC(C)C)C(=O)N[C@@H](C)C(N)=O) [Ac-Y-I-hR-L-A-NH2] | < 100
35 | [dY]I[Agb]LA-NH2 (N-terminus assumed; SMILES CC[C@H](C)[C@H](NC(=O)[C@H](N)Cc1ccc(O)cc1)C(=O)N[C@@H](CCNC(=N)N)C(=O)N[C@@H](CC(C)C)C(=O)N[C@@H](C)C(N)=O) [y-I-(nR)-L-A-NH2] | < 100
36 | Ac-[(iBu)Tyr]I[Orn(Nδ-C3H7N)]LP-NH2 [Ac-(iBu)Y-I-Orn(N^δ-C3H7N)-L-P-NH2] | < 100
37 | Ac-[Phe(4-CONH2)]IRLP-NH2 (SMILES CC[C@H](C)[C@H](NC(=O)[C@H](Cc1ccc(C(N)=O)cc1)NC(C)=O)C(=O)N[C@@H](CCCNC(=N)N)C(=O)N[C@@H](CC(C)C)C(=O)N1CCC[C@H]1C(N)=O) [Ac-F(pCONH2)-I-R-L-P-NH2] | < 100
38 | XIRLP (N-term Ac; Y1=Tyr(3,5-NO2); C-term NH2) [Ac-Tyr(3,5-NO2)-I-R-L-P-NH2] | < 100
